For experiment [1], the target named is T1, recombinant human ENPP1 extracellular domain fused with a His6-FLAG tag (human).
T1 construct: Expressed in Expi293 cells and purified on nickel resin; It was coated at 50 ng/well in the ELISAs and captured in biotinylated form on streptavidin biosensors in BLItz; also called ENPP1-His; rhENPP1
T1 sequence (P22413 98-925, looked up): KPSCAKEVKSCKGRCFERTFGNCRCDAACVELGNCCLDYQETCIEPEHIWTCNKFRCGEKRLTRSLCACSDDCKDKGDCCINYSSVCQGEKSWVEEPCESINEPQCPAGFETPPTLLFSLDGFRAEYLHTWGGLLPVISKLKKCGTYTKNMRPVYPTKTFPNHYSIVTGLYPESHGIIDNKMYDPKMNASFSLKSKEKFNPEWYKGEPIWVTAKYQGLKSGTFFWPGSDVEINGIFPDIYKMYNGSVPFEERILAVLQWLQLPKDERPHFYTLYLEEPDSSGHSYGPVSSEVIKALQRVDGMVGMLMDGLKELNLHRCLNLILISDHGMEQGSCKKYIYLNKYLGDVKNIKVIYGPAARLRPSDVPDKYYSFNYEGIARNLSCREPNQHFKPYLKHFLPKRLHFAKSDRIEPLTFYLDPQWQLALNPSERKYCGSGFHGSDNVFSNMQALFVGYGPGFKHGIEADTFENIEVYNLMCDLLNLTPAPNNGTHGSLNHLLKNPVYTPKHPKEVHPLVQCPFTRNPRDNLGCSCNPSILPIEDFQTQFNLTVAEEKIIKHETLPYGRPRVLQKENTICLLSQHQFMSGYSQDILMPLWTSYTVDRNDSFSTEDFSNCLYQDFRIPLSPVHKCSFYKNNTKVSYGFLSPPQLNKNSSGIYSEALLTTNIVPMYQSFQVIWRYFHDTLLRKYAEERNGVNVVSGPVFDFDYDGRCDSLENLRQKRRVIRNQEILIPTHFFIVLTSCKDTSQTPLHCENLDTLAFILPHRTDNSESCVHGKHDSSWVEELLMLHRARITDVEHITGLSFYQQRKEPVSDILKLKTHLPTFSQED
In words: ELISA, ENPP1-His coated at 50 ng/well, anti-FLAG-HRP detection. The procedure:
(§1) The binding and specificity of Fab, scFv, and IgG1 to ENPP1 were analyzed by ELISA. Briefly, ENPP1-His protein was coated at 50 ng/well at 4° C. overnight and blocked with 5% milk for 2 hours at room temperature. After three times washing with PBST, they were incubated with 3-fold serially diluted Fab, scFv, or IgG1 for 1 hour at 37° C. For Fab and scFv detection via the FLAG tag present at the C-terminus, further incubation was performed with anti-FLAG M2-peroxidase (HRP) antibody (A8592, Sigma-Aldrich, St. Louis, MO, USA) for another 1 hour. For the IgG1, HRP-conjugated goat anti-human IgG1 Fc (Sigma-Aldrich, St. Louis, MO, USA) was used for detection.

Experiment [2] deals with T2, BSA (UniProt P02769 25-607).
T2 construct: Specificity control antigen in ELISA
Nature of the experiment: ELISA on BSA.

Experiment [3] deals with T1, recombinant human ENPP1 extracellular …. In words: BLItz biolayer interferometry, biotinylated ENPP1 on streptavidin biosensor. The method, then:
(§2) The affinity and avidity of the anti-hENPP1 antibody were detected by biolayer interferometry BLItz (ForteBio, Menlo Park, CA, USA). Briefly, DPBS was used to establish a baseline for 30 seconds, and streptavidin biosensor (ForteBio) was coated with 16.7 μg/mL recombinant ENPP1-Biotin for 2 minutes. […] Antigen-coated biosensors with PBS served as a reference control. The dissociation was monitored in DPBS for 4 minutes.

Experiment [4] shares this target. Nature of the experiment: BLItz biolayer interferometry, biotinylated ENPP1 on a streptavidin biosensor. The procedure: as §2
The target is the same in experiment [5]. In words: ELISA, ENPP1-His coated at 50 ng/well, anti-human IgG1 Fc-HRP detection. The procedure:
as §1

The target is the same in experiment [6]. Nature of the experiment: BLItz biolayer interferometry, biotinylated ENPP1 on streptavidin biosensor (avidity, bivalent IgG1). The method, then:
as §2

T2 sequence (P02769 25-607 limits assumed): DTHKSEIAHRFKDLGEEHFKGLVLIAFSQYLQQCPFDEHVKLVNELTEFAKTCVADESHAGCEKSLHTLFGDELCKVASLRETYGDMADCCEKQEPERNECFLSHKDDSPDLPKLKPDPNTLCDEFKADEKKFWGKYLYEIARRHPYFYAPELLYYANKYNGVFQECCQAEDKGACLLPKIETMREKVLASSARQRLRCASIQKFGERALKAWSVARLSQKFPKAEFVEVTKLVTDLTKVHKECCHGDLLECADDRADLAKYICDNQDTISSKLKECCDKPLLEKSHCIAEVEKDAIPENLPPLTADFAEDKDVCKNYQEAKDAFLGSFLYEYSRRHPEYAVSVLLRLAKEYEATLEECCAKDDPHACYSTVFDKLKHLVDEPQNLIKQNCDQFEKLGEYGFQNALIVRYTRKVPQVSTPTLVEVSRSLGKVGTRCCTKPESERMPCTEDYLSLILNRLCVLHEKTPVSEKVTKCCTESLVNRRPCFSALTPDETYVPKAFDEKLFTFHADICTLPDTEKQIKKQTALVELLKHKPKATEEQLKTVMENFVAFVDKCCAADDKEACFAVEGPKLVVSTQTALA

B1: scFv 17 (scFv)
scFv: DIQMTQSPSSLSASVGDRVTITCRASQSISSYLNWYQQKPGKAPKLLIYAASSLQSGVPSRFSGSGSGTDFTLTISSLQPEDAATYYCQQYDTFPLTFGGGTKVEIKGGGGSGGGGSGGGGSQVQLVESGGGLVKPGGSLRLSCAASGFTFSDYYMSWIRQAPGKGLEWVSYISSSGSTIYYADSVKGRFTISRDNAKNSLYLQMNSLRAEDTAVYYCAREVYYYDSSGYYTYYFDYWGQGTLVTVSS
notes: VL-(G4S)3-VH orientation; Expressed in E. coli; also called scFv format antibody 17; not shown: C-terminal FLAG tag used for detection; The protein was purified on Ni-NTA
In the case of B1, the EC50 in experiment [1] was found to be 6.4 nM.

B2: scFv 3G12 (scFv)
scFv: DIQMTQSPSSLSASVGDRVTITCRASQSISSYLNWYQQKPGKAPKLLIYAASSLQSGVPSRFSGSGSGTDFTLTISSLQPEDVAVYYCQQYYTSRITFGQGTKLEIKGGGGSGGGGSGGGGSQVQLVESGGGLVKPGGSLRLSCAASGFTFSDYYMSWIRQAPGKGLEWVSYISSSGSTIYYADSVKGRFTISRDNAKNSLYLQMNSLRAEDTAVYYCAREVYYYDSSGYYTYYFDYWGQGTLVTVSS
notes: VL-(G4S)3-VH orientation; Expressed in E. coli; also called scFv format antibody 3G12; not shown: C-terminal FLAG tag used for detection; The protein was purified on Ni-NTA
As to B2, in experiment [1], the EC50 stood at 52.2 nM.

B3: Fab 17 (Fab, V domains shown)
VH: QVQLVESGGGLVKPGGSLRLSCAASGFTFSDYYMSWIRQAPGKGLEWVSYISSSGSTIYYADSVKGRFTISRDNAKNSLYLQMNSLRAEDTAVYYCAREVYYYDSSGYYTYYFDYWGQGTLVTVSS
VL: DIQMTQSPSSLSASVGDRVTITCRASQSISSYLNWYQQKPGKAPKLLIYAASSLQSGVPSRFSGSGSGTDFTLTISSLQPEDAATYYCQQYDTFPLTFGGGTKVEIKR
notes: Human Fab from a phage library, expressed in E. coli and purified on Ni-NTA; also called 17-Fab; Clone #1 (Fab)
With B3, the binding result in experiment [2] is “no binding”. The EC50 in experiment [1] stood at 13.9 nM. In experiment [3], the Kd stood at 61.4 nM, the koff is 0.0044 s⁻¹ and the kon is 72000 M⁻¹ s⁻¹. Also, in experiment [4], the koff was determined as 0.00441 s⁻¹ and the kon amounted to 71800 M⁻¹ s⁻¹.

B4: IgG1 17 (antibody, V domains shown)
VH: QVQLVESGGGLVKPGGSLRLSCAASGFTFSDYYMSWIRQAPGKGLEWVSYISSSGSTIYYADSVKGRFTISRDNAKNSLYLQMNSLRAEDTAVYYCAREVYYYDSSGYYTYYFDYWGQGTLVTVSS
VL: DIQMTQSPSSLSASVGDRVTITCRASQSISSYLNWYQQKPGKAPKLLIYAASSLQSGVPSRFSGSGSGTDFTLTISSLQPEDAATYYCQQYDTFPLTFGGGTKVEIKR
notes: also called hIgG1 17; IgG 17
Regarding B4, in experiment [5], the EC50 is 0.14 nM. In experiment [6], the Kd was found to be 6.7 nM, the koff amounted to 0.0042 s⁻¹ and the kon was determined as 630000 M⁻¹ s⁻¹.

B5: IgG1 3G12 (antibody, V domains shown)
VH: QVQLVESGGGLVKPGGSLRLSCAASGFTFSDYYMSWIRQAPGKGLEWVSYISSSGSTIYYADSVKGRFTISRDNAKNSLYLQMNSLRAEDTAVYYCAREVYYYDSSGYYTYYFDYWGQGTLVTVSS
VL: DIQMTQSPSSLSASVGDRVTITCRASQSISSYLNWYQQKPGKAPKLLIYAASSLQSGVPSRFSGSGSGTDFTLTISSLQPEDVAVYYCQQYYTSRITFGQGTKLEIKR
notes: Bivalent human IgG1 converted from Fab 3G12, expressed in Expi293 cells and purified on Protein A; also called hIgG1 3G12
On to B5, for which the EC50 in experiment [5] turned out to be 0.24 nM. Moreover, the kon in experiment [4] was 516000 M⁻¹ s⁻¹. Further, in experiment [6], the Kd amounted to 4.2 nM, the off-rate constant (koff) is 0.0021 s⁻¹ and the kon stood at 520000 M⁻¹ s⁻¹.

B6: Fab 3G12 (Fab, V domains shown)
VH: QVQLVESGGGLVKPGGSLRLSCAASGFTFSDYYMSWIRQAPGKGLEWVSYISSSGSTIYYADSVKGRFTISRDNAKNSLYLQMNSLRAEDTAVYYCAREVYYYDSSGYYTYYFDYWGQGTLVTVSS
VL: DIQMTQSPSSLSASVGDRVTITCRASQSISSYLNWYQQKPGKAPKLLIYAASSLQSGVPSRFSGSGSGTDFTLTISSLQPEDVAVYYCQQYYTSRITFGQGTKLEIKR
notes: Same heavy chain as Fab 17, different light chain; Expressed in E. coli and purified on Ni-NTA; also called 3G12-Fab; Clone #2 (Fab)
As to B6, in experiment [2], the binding result is reported as “no binding”. For the same molecule, in experiment [1], the EC50 was found to be 2.6 nM. In experiment [3], the Kd stood at 35.5 nM, the koff was 0.0018 s⁻¹ and the kon came out at 52000 M⁻¹ s⁻¹. In addition, in experiment [4], the koff stood at 0.00184 s⁻¹ and the kon turned out to be 51900 M⁻¹ s⁻¹.

(Values after US20250177530A1 (UNIVERSITY OF PITTSBURGH OF THE COMMONWEALTH SYSTEM OF …, published 2025).)
